From patent publication US20110143379A1 (Johns Hopkins, published 2011) come the findings set out here.

The target of this assay is T1, albumin (in whole human plasma) (human, UniProt P02768 25-609).
T1 construct: Endogenous plasma protein, not a purified reagent
Put plainly: ethanol precipitation of human plasma spiked with TRX; fractions followed by western blot. In general terms: In western blotting, separated proteins are transferred to a membrane and probed.

T1 sequence (P02768 25-609 limits assumed): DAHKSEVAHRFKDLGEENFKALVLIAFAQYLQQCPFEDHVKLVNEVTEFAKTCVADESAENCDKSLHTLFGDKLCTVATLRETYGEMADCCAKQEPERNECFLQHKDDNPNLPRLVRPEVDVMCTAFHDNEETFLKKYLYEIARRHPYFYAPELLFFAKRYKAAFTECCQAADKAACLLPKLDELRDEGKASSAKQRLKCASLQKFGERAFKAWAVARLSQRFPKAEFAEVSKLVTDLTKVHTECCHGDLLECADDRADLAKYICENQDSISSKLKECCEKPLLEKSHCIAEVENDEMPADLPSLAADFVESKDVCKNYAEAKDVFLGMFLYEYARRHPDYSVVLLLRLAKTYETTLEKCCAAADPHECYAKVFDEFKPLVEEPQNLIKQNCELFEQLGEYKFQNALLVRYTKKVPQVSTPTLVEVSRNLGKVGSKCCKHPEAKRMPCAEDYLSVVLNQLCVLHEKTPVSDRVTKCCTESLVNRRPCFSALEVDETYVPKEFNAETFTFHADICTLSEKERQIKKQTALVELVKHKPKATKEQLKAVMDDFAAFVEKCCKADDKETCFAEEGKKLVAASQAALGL

B1: recombinant human thioredoxin (TRX), full length (enzyme)
chain: VKQIESKTAFQEALDAAGDKLVVVDFSATWCGPCKMIKPFFHSLSEKYSNVIFLEVDVDDCQDVASECEVKCMPTFQFFKKGQKVGEFSGANKEKLEATINELV
notes: It was denatured on SDS gels for the western blots; also called full-length thioredoxin
As to B1, the binding result is listed as “binds”.
